From PMC4041422, “Rapid kinetics of iron responsive element (IRE) RNA/iron regulatory protein 1 and IRE-RNA/eIF4F complexes respond differently to metal ions”

Key:
Conditions in all cases: protein: recombinant; tags: Ni-chelate purified; hairpin with mid-helix bulge C and hexaloop
[1] = biological target: T1, IRP1 (iron regulatory protein 1) (rabbit, UniProt Q01059 1-889); assay: stopped-flow fluorescence anisotropy (koff/kon); 5 uM Mn2+; kon 176, koff 9.7; 40 mM HEPES pH 7.2, 100 mM KCl, 1 mM MgCl2 (Methods; not listed in the Figure 2 legend), 5% glycerol, 2% 2-mercaptoethanol, 25 C; RNA 50 nM with IRP1 0.05-1 uM; eIF4F 0.1 uM with RNA 0.1-0.5 uM
T1 sequence: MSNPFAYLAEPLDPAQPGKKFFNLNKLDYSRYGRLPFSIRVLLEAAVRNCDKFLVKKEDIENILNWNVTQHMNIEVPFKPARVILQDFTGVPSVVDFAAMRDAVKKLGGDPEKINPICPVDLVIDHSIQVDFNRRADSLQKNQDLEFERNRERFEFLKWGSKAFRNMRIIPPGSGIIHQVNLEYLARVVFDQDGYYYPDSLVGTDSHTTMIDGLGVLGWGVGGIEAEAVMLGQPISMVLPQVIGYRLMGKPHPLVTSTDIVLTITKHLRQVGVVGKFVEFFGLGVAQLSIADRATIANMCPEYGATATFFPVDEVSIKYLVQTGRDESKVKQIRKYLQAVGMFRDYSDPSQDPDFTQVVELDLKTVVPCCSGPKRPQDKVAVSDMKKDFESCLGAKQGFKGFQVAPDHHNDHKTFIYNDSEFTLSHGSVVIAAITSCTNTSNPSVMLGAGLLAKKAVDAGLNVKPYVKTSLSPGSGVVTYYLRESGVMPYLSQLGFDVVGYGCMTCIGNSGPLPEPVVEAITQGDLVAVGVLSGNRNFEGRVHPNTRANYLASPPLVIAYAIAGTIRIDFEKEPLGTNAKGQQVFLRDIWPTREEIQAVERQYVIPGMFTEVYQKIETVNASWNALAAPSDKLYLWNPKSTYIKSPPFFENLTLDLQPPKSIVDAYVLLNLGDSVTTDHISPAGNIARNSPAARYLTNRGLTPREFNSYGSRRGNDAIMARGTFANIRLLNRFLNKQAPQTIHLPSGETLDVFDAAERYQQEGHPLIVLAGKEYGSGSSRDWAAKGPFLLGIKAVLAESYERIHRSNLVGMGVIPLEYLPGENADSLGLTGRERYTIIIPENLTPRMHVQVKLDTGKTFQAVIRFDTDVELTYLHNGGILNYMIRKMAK

[2] = biological target: T1, IRP1 (iron regulatory protein 1); assay: stopped-flow fluorescence anisotropy (koff/kon); 150 mM KCl; kon 209, koff 6.3; 40 mM HEPES pH 7.2, 100 mM KCl, 1 mM MgCl2 (Methods; not listed in the Figure 2 legend), 5% glycerol, 2% 2-mercaptoethanol, 25 C; RNA 50 nM with IRP1 0.05-1 uM; eIF4F 0.1 uM with RNA 0.1-0.5 uM
[3] = biological target: T1, IRP1 (iron regulatory protein 1); assay: stopped-flow fluorescence anisotropy (koff/kon); no Mn2+, 100 mM KCl; kon 400 uM-1 s-1, koff 6.2 s-1; 40 mM HEPES pH 7.2, 100 mM KCl, 1 mM MgCl2 (Methods; not listed in the Figure 2 legend), 5% glycerol, 2% 2-mercaptoethanol, 25 C; RNA 50 nM with IRP1 0.05-1 uM; eIF4F 0.1 uM with RNA 0.1-0.5 uM
[4] = biological target: T1, IRP1 (iron regulatory protein 1); assay: stopped-flow fluorescence anisotropy (koff/kon); 150 mM KCl; kon 39, koff 7.4; 40 mM HEPES pH 7.2, 100 mM KCl, 1 mM MgCl2 (Methods; not listed in the Figure 2 legend), 5% glycerol, 2% 2-mercaptoethanol, 25 C; RNA 50 nM with IRP1 0.05-1 uM; eIF4F 0.1 uM with RNA 0.1-0.5 uM
[5] = biological target: T1, IRP1 (iron regulatory protein 1); assay: stopped-flow fluorescence anisotropy (koff/kon); 5 uM Mn2+; kon 35.2, koff 7.6; 40 mM HEPES pH 7.2, 100 mM KCl, 1 mM MgCl2 (Methods; not listed in the Figure 2 legend), 5% glycerol, 2% 2-mercaptoethanol, 25 C; RNA 50 nM with IRP1 0.05-1 uM; eIF4F 0.1 uM with RNA 0.1-0.5 uM
[6] = biological target: T1, IRP1 (iron regulatory protein 1); assay: stopped-flow fluorescence anisotropy (koff/kon); no Mn2+, 100 mM KCl; kon 51.5 uM-1 s-1, koff 7.0 s-1; 40 mM HEPES pH 7.2, 100 mM KCl, 1 mM MgCl2 (Methods; not listed in the Figure 2 legend), 5% glycerol, 2% 2-mercaptoethanol, 25 C; RNA 50 nM with IRP1 0.05-1 uM; eIF4F 0.1 uM with RNA 0.1-0.5 uM

B1: FRT IRE-RNA, fluorescein labeled (FIFRT IRE-RNA) (structured_RNA)
RNA: GUUCUUGCUUCAACAGUGUUUGAACGGAAC
Kd [1]: 55 ± 2.7 nM
Kd [2]: 30 ± 0.7 nM
Kd [3]: 15.5 ± 0.5 nM

B2: ACO2 IRE-RNA, fluorescein labeled (FIACO2 IRE-RNA) (structured_RNA)
RNA: CCUCAUCUUUGUCAGUGCACAAAAUGGCG
Kd [4]: 190 ± 9 nM
Kd [5]: 217 ± 7.6 nM
Kd [6]: 136 ± 2.9 nM
